From US20110262748A1

Columns and labels:
[1] = target: human IgG antibody (manufactured by Lampire Biological Laboratories) (human); experiment: column breakthrough binding capacity of human IgG, protein A on crosslinked agarose, 150 cm/hr
[2] = target: human IgG antibody (manufactured by Lampire Biological Laboratories) (human); experiment: column breakthrough binding capacity of human IgG, protein A on crosslinked agarose, 500 cm/hr

binding capacity [1]: 25 mg/mL
binding capacity [2]: 12 mg/mL
Substance: protein A immobilized on crosslinked agarose (MabSelect Xtra, GE Healthcare Biosciences) (from UniProt P38507 37-327)
